Among the data in PMC11098500 (PLOS Pathogens, 2024) are Kd values, retold here.

This assay deals with SARS-CoV-2 RBD (residues 319-529), His-tagged (SARS-CoV-2 (prototypic strain), UniProt P0DTC2 319-529). The experiment in a line: SPR. Conditions: both partners purified.

B1: raccoon dog ACE2 ectodomain (residues 1-614), Fc-tagged (Fc fusion)
chain: QSTEDLVNTFLEKFNYEAEELSYQSSLASWNYNTNITDENLQKMNNAGAKWSAFYEEQSKLAKTYPLEEIQDSTVKRQLRALQHSGSSVLSADKNQRLNTILNSMSTIYSTGKACNPSNPQECLLLEPGLDDIMENSKDYNERLWAWEGWRSEVGKQLRPLYEEYVALKNEMARANNYEDYGDYWRGDYEEEWENGYNYSRNQLIDDVEHTFTQIMPLYQHLHAYVRTKLMDTYPSYISPTGCLPAHLLGDMWGRFWTNLYPLTVPFGQKPNIDVTNAMVNQSWDARKIFKEAEKFFVSVGLPNMTQGFWENSMLTEPSDSWKVVCHPTAWDLGRGDFRIKMCTKVTMDDFLTAHHEMGHIQYDMAYAAQPFLLRNGANEGFHEAVGEIMSLSAATPNHLKNIGLLPPSFFEDSETEINFLLKQALTIVGTLPFTYMLEKWRWMVFKGEIPKDQWMKTWWEMKRNIVGVVEPVPHDETYCDPASLFHVANDYSFIRYYTRTIYQFQFQEALCQIAKHEGPLHKCDISNSSEAGQKLLEMLKLGKSKPWTYALEIVVGAKNMDVRPLLNYFEPLFTWLKEQNRNSFVGWNTDWSPYAD
Broadly, the Kd is the equilibrium constant for the complex coming apart. Turning to B1, the Kd came to 399 nM.
